Measurements taken from the RNAGym collection of RNA variant scans (doi:10.7554/elife.80360).

B1: Twister Ribozyme (parent)
chain: AACACUGCCAAUGCCGGUCCCAAGCCCGGAUAAAAGUGGAGGGGGCGG

Variants of: B1
Experiment: self-cleavage, relative activity (ratio to wild type); higher = more cleavage; co-transcriptional

| Variant | self-cleavage |
| --- | --- |
| AACACUGCCAAUGGCGGUCCCAAGCCCGGAUAAAUGUGGAGGGGGCGG | 0.125 |
| AACACUGCCAAUGGCGGUCCCAAGCCCGGAUAAAAGUGGAGGUGGCGG | 0.08 |
| AACACUGCCAAUGGCGGUCCCAAGCCCGGAUAAAAGUGGAGGCGGCGG | 0.0465 |
| AACACUGCCAAUGGCGGUCCCAAGCCCGGAUAAAAGUUGAGGGGGCGG | 0.111 |
| AACACUGCCAAUGGCGGUCCCAAGCCCGGAUAAAAGUCGAGGGGGCGG | 0.159 |
| AACACUGCCAAUGUCGCUCCCAAGCCCGGAUAAAAGUGGAGGGGGCGG | 0.152 |
| AACACUGCCAAUGUCGUUCCCAAGCCCGGAUAAAAGUGGAGGGGGCGG | 0.373 |
| AACACUGCCAAUGACGGUCCCAAGCCCGGAUAAAAGGGGAGGGGGCGG | 0.725 |
| AACACUGCCAAUGACGGUCCCAAGCCCGGAUAAAAGCGGAGGGGGCGG | 0.619 |
| AACACUGCCAAUGGUGGUCCCAAGCCCGGAUAAAAGUGGAGGGGGCGG | 0.401 |
| AACACUGCCAAUGUCGGUCCCAAGCCCGGAUAAAAGUGGAGUGGGCGG | 0.486 |
| AACACUGCCAAUGUCGGUCCCAAGCCCGGAUAAAAGUGGAGCGGGCGG | 0.59 |
| AACACUGCCAAUGUCGGUCCCAAGGCCGGAUAAAAGUGGAGGGGGCGG | 0.627 |
| AACACUGCCAAUGUCGGACCCAAGCCCGGAUAAAAGUGGAGGGGGCGG | 0.635 |
| AACACUGCCAAUGUCGGCCCCAAGCCCGGAUAAAAGUGGAGGGGGCGG | 0.594 |
| AACACUGCCAAUGUCGGUCCCAAGCCCGGAUAAAAGUGGGGGGGGCGG | 0.21 |
| AACACUGCCAAUGGCGGUCCCAAGCCCGGAUAUAAGUGGAGGGGGCGG | 0.172 |
| AACACUGCCAAUGACGGUCCCAAGCCCGGAUAAAAGUGGAGGGGGCCG | 0.44 |
| AACACUGCCAAUGUCGGUCCCAAGCCCGGAUAAAAGGGGAGGGGGCGG | 0.845 |
| AACACUGCCAAUGUCGGUCCCAAGCCCGGAUAAAAGAGGAGGGGGCGG | 0.83 |
| AACACUGCCAAUGGCGGUCCCAAGCCCGGAUAAAAGGGGAGGGGGCGG | 0.0706 |
| AACACUGCCAAUGUCGGUCCCAAGCCCGGACAAAAGUGGAGGGGGCGG | 1.22 |
| AACACUGCCAAUGUCGGUCCCAAGCCCGGAUAAAAGUGUAGGGGGCGG | 0.28 |
| AACACUGCCAAUGUCGGUCCCAAGCCCGGAUAAAAGUGCAGGGGGCGG | 0.198 |
| AACACUGCCAAUGUCGGUCCCAAGCCCGGAUAAAAGUGAAGGGGGCGG | 0.509 |
| AACACUGCCAAUGGCGGUCCCAAGCCCGGAUCAAAGUGGAGGGGGCGG | 0.12 |
| AACACUGCCAAUGGCGGUCCCAAGCCCGGAUGAAAGUGGAGGGGGCGG | 0.117 |

| Variant | self-cleavage |
| --- | --- |
| AACACUGCCAAUGACGGUCCCAAGCCCGGAUAAAAGUGGAGGGGGCGA | 0.868 |
| AACACUGCCAAUGACGGUCCCAAGCCCGGAUAAAAGUGGAGGGGGCGU | 0.887 |
| AACACUGCCAAUGGCUGUCCCAAGCCCGGAUAAAAGUGGAGGGGGCGG | 0.138 |
| AACACUGCCAAUGUCGGUCCCACGCCCGGAUAAAAGUGGAGGGGGCGG | 0.51 |
| AACACUGCCAAUGUCGGUCCCAUGCCCGGAUAAAAGUGGAGGGGGCGG | 0.722 |
| AACACUGCCAAUGUCGGUCCCAGGCCCGGAUAAAAGUGGAGGGGGCGG | 0.666 |
| AACACUGCCAAUGGCGGUCCCGAGCCCGGAUAAAAGUGGAGGGGGCGG | 0.0913 |
| AACACUGCCAAUGGCGAUCCCAAGCCCGGAUAAAAGUGGAGGGGGCGG | 0.122 |
| AACACUGCCAAUGGCGCUCCCAAGCCCGGAUAAAAGUGGAGGGGGCGG | 0.124 |
| AACACUGCCAAUGUCGGUCCCCAGCCCGGAUAAAAGUGGAGGGGGCGG | 1.15 |
| AACACUGCCAAUGUCGGUCCCGAGCCCGGAUAAAAGUGGAGGGGGCGG | 0.319 |
| AACACUGCCAAUGUCGGUCCCAAGCCCGGUUAAAAGUGGAGGGGGCGG | 1.06 |
| AACACUGCCAAUGUCGGUCCCAAGCCCGGCUAAAAGUGGAGGGGGCGG | 1.08 |
| AACACUGCCAAUGUCUGUCCCAAGCCCGGAUAAAAGUGGAGGGGGCGG | 0.778 |
| AACACUGCCAAUGUCGGUCCCAAGCCCGGAUAAAACUGGAGGGGGCGG | 0.464 |
| AACACUGCCAAUGUCGGUCCCAAGCCCGGAUAAAAUUGGAGGGGGCGG | 0.421 |
| AACACUGCCAAUGUGGGUCCCAAGCCCGGAUAAAAGUGGAGGGGGCGG | 0.36 |
| AACACUGCCAAUGGCGGUUCCAAGCCCGGAUAAAAGUGGAGGGGGCGG | 0.426 |
| AACACUGCCAAUGUCGGUCCCAAGCCCGGAUAUAAGUGGAGGGGGCGG | 1.07 |
| AACACUGCCAAUGUCGGUCCCAAGCCCGGAUAAAAGUGGACGGGGCGG | 0.343 |
| AACACUGCCAAUGUCGGUCCCAAGCCCGGAUAAAAGUGGAAGGGGCGG | 0.698 |
| AACACUGCCAAUGUCGGUCCCAAGCCCGGAUAAAAGUGGAUGGGGCGG | 0.719 |
| AACACUGCCAAUGGCGGUCCUAAGCCCGGAUAAAAGUGGAGGGGGCGG | 0.0834 |
| AACACUGCCAAUGUCGGUCCCAAGCCCGGAUAAAAGUGGAGGGAGCGG | 1.08 |
| AACACUGCCAAUGUCGGUCCCAAGCCCGGAUAAAAGUGGAGGGUGCGG | 1.15 |
| AACACUGCCAAUGUCGGUCCCAAGCCCGGAUAAAAGUGGAGGGCGCGG | 0.983 |
| AACACUGCCAAUGUCGGUCCUAAGCCCGGAUAAAAGUGGAGGGGGCGG | 0.141 |
